Molecular target: T1, TLR4:Fc fusion protein (UniProt O00206 24-631)
T1 construct: The composition is not described beyond 'the related TLR4:Fc'; also called the TLR4 fusion protein; not shown: Fc part; not described for TLR4:Fc (only 'related' to TLR2:Fc, which carries mouse IgG2a Fc)
Experiment: ELISA, Fc fusion plated on plastic, biotinylated ligand as probe, anti-biotin-HRP detection

T1 sequence (O00206 24-631 limits assumed): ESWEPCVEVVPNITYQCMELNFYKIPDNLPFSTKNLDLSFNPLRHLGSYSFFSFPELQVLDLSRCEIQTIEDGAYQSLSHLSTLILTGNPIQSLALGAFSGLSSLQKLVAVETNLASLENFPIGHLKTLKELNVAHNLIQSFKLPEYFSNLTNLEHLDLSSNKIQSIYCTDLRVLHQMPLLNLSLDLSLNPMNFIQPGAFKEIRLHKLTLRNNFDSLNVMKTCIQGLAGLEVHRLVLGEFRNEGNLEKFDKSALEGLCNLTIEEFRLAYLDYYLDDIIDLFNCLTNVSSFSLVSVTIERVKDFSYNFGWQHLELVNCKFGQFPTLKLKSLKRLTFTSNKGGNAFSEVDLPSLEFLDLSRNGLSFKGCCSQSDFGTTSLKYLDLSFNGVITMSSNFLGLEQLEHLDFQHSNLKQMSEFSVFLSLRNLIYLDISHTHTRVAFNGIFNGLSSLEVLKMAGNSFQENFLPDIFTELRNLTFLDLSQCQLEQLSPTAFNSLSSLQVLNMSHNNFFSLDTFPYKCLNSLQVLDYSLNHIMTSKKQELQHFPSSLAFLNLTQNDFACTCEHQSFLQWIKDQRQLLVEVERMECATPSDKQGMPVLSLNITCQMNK

B1: PorinB from Neisseria meningitidis (ligand)
chain: DVTLYGTIKAGVETSRSVFHQNGQVTEVTTATGIVDLGSKIGFKGQEDLGNGLKAIWQVEQKASIAGTDSGWGNRQSFIGLKGGFGKLRVGRLNSVLKDTGDINPWDSKSDYLGVNKIAEPEARLISVRYDSPEFAGLSGSVQYALNDNAGRHNSESYHAGFNYKNGGFFVQYGGAYKRHHQVQEGLNIEKYQIHRLVSGYDNDALYASVAVQQQDAKLTDASNSHNSQTEVAATLAYRFGNVTPRVSYAHGFKGLVDDADIGNEYDQVVVGAEYDFSKRTSALVSAGWLQEGKGENKFVATAGGVGLRHKF
modifications: biotinylated in the binding assays (sites not given); not stated as biotinylated in the reporter assay
notes: also called biotinylated PorinB; biotinylated Porin
  binding result: no binding

Source: US20060099650A1 (UNIVERSITY OF MASSACHUSETTS, published 2006)
